Target: T1, interaction between TIM-3 and Galectin-9 (Homo sapiens, UniProt Q8TDQ0)
T1 construct: purchased R&D Systems
Test: Plate-based (MesoScale) competition assay of the TIM-3/Galectin-9 interaction
Format: binding
Conditions: TIM-3 fusion protein coated at 2 μg/ml; SULFOTag Galectin-9 100 nM; FIG. 1
Protocol: TIM-3 fusion protein (R&D Systems) was coated on a standard MesoScale 96 well plate (Meso Scale Discovery) at 2 μg/ml in PBS (Phosphate Buffered Saline) and incubated for six hours at room temperature. The plate was washed three times with PBST (PBS buffer containing 0.05% Tween-20) and blocked with PBS containing 5% Probumin (Millipore) overnight at 4° C. After incubation, the plate was washed three times with PBST and unlabeled antibody (F38-2E2 (BioLegend); MBG453; MBG453 F(ab′)2; MBG453 F(ab); or control recombinant human Galectin-9 protein) diluted in Assay Diluent (2% Probumin, 0.1% Tween-20, 0.1% Triton X-100 (Sigma) with 10% StabilGuard (SurModics)), was added in serial dilutions to the plate and incubated for one hour on an orbital shaker at room temperature. The plate was then washed three times with PBST, and Galectin-9 labeled with MSD SULFOTag (Meso Scale Discovery) as per manufacturer's instructions, diluted in Assay Diluent to 100 nM, was added to the plate for one hour at room temperature on an orbital shaker. The plate was again washed three times with PBST, and Read Buffer T (1×) was added to the plate. The plate was read on MA600 Imager, and competition was assessed as a measure of the ability of the antibody to block Ga19-SULFOTag signal to TIM-3 receptor.

ability of the antibody to block Ga19-SULFOTag signal to TIM-3 receptor (interaction between TIM-3 and Galectin-9): did not
B1: control Galectin-9 protein: control recombinant human Galectin-9 protein, unlabeled (protein)
chain: AFSGSQAPYLSPAVPFSGTIQGGLQDGLQITVNGTVLSSSGTRFAVNFQTGFSGNDIAFHFNPRFEDGGYVVCNTRQNGSWGPEERKTHMPFQKGMPFDLCFLVQSSDFKVMVNGILFVQYFHRVPFHRVDTISVNGSVQLSYISFQPPGVWPANPAPITQTVIHTVQSAPGQMFSTPAIPPMMYPHPAYPMPFITTILGGLYPSKSILLSGTVLPSAQRFHINLCSGNHIAFHLNPRFDENAVVRNTQIDNSWGSEERSLPRKMPFVRGQSFSVWILCEAHCLKVAVDGQHLFEYYHRLRNLPTINRLEVGGDIQLTHVQT
